Measured values: PMC8204981, “Helicobacter pylori GmhB enzyme involved in ADP-heptose biosynthesis pathway is essential for lipopolysaccharide biosynthesis and bacterial virulence” (Virulence, 2021)

Experiments:
[1] = system: O=P(O)(O)OC[C@@H](O)[C@H]1O[C@H](OP(=O)(O)O)[C@@H](O)[C@@H](O)[C@@H]1O; experiment: purified protein; settings: 20 mM HEPES pH 8.0, 10 mM MgCl2, 10 mM KCl, 25 °C, 30 min
Text: (§1) malachite green phosphate release assay, Michaelis-Menten fit on HP0860 protein (H. pylori GmhB)

[2] = system: O=P(O)(O)OC[C@@H](O)[C@H]1O[C@@H](OP(=O)(O)O)[C@@H](O)[C@@H](O)[C@@H]1O; experiment: purified protein; settings: 20 mM HEPES pH 8.0, 10 mM MgCl2, 10 mM KCl, 25 °C, 30 min
Text: as §1

What does the source list for “HP0860 protein (H. pylori GmhB) (Helicobacter pylori 26695)”?
Km [1]: 300 ± 80 µM; kcat [1]: 1.07 ± 0.1 s⁻¹; kcat/Km [1]: 3570 M⁻¹ s⁻¹; Km [2]: 210 ± 50 µM; kcat [2]: 2.18 ± 0.17 s⁻¹; kcat/Km [2]: 10400 M⁻¹ s⁻¹
